Results on 2 molecules are retold here after paper PMC5078793, “ADAMTS-10 and -6 differentially regulate cell-cell junctions and focal adhesions” (Scientific Reports, 2016).

Data set [1] concerns the molecule itself. Nature of the data set: SDS-PAGE and western blot (SDS-resistant dimer); purified syndecan-4 ectodomain treated with heparinases I, II, III; anti-syndecan-4 blot; with or without ADAMTS6 overnight at 37 °C. (In western blotting, separated proteins are transferred to a membrane and probed.)
Data set [2] concerns the target T1, ADAMTS10 C-terminal region (human, UniProt Q9H324 547-1103).
T1 construct: human ADAMTS10 variant 1, C-terminal region starting at the 1st TSR domain, residues 547-1103; also called C-terminal ADAMTS10; source: 293-EBNA cells (pCEP-pu/AC7), purified (IMAC, 0.5 M NaCl)
T1 sequence (looked up): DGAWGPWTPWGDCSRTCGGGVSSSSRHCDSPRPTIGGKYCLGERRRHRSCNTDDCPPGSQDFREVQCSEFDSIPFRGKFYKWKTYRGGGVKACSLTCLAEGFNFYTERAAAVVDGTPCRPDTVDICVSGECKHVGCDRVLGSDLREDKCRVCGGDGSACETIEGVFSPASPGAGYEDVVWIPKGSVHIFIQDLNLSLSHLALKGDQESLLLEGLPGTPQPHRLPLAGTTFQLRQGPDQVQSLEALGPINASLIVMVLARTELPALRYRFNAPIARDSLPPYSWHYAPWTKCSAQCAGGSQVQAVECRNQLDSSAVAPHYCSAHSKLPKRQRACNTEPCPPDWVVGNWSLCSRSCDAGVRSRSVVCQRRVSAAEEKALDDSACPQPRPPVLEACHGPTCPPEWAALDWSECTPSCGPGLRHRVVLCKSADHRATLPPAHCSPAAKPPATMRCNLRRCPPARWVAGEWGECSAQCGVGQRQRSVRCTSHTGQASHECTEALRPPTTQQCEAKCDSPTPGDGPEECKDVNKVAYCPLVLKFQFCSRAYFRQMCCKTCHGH
Nature of the data set: SPR; Biacore; syndecan-4 ectodomain immobilised, ADAMTS C-terminal regions injected; 10 mM HEPES pH 7.4, 0.1 M NaCl, 0.5 mM CaCl2, 0.005% P20. The conditions noted are these: both partners purified. On the technique in general: In SPR one partner is held on a chip, and binding of the other changes the refractive index at the surface.

For data set [3], the target named is T2, ADAMTS6 C-terminal region (human, UniProt Q9UKP5-1 558-1117).
T2 construct: human ADAMTS6 variant 1, C-terminal region starting at the 1st TSR domain, residues 558-1117; The text calls it monomeric; also called C-terminal ADAMTS6; C-terminal fragment of ADAMTS6; source: 293-EBNA cells (pCEP-pu/AC7), purified (IMAC, 0.5 M NaCl)
T2 sequence (looked up): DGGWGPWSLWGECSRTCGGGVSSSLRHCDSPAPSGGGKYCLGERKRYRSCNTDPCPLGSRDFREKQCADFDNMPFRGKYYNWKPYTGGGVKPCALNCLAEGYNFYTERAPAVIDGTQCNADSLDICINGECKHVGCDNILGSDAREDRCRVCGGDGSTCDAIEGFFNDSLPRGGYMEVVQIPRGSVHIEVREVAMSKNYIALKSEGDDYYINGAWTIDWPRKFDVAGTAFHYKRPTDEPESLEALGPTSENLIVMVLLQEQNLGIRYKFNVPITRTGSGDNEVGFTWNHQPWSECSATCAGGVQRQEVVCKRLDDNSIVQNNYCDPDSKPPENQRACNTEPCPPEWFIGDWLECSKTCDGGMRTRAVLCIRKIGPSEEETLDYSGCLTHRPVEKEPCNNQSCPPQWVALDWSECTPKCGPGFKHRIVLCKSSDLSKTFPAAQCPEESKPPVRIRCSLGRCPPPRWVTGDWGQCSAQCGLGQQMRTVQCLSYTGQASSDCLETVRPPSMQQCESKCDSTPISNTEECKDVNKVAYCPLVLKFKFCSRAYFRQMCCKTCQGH
The data set is described as above. The settings on record: both partners purified.

In data set [4] the target is T2, ADAMTS6 C-terminal region. Put plainly: SPR; Biacore; ADAMTS protein (full-length or C-terminal region) immobilised by amine coupling on CM5 (~3000 RU); analyte injected at 30 ul/min; 10 mM HEPES pH 7.4, 0.1 M NaCl, 0.5 mM CaCl2, 0.005% P20; 1:1 kinetics or equilibrium analysis. The conditions noted are these: both partners purified.

B1: syndecan-4 ectodomain (domain or fragment, human (cloned from ARPE-19A RNA), UniProt P31431 19-143, looked up)
chain: ESIRETEVIDPQDLLEGRYFSGALPDDEDVVGPGQESDDFELSGSGDLDDLEDSMIGPEVVHPLVPLDNHIPERAGSGSQVPTEPKKLEENEVIPKRISPVEESEDVSNKVSMSSTVQGSNIFER
modifications: the recombinant protein is modified with heparin chains
notes: syndecan-4 ectodomain cloned from RNA of ARPE-19A cells, residues 19-143 (ESI....IFE); Carries heparan sulphate chains in the SPR; also called Syn4 EC; syndecan-4 extracellular domain; source: 293-EBNA cells (pCEP-pu/AC7), purified (IMAC, size-exclusion chromatography)
Consider B1, for which the binding result in data set [1] is on record as “binds”. Further, the Kd (commonly the concentration at which binding is half-saturated) was found to be 14 ± 1.1 nM in data set [2] and 12.9 ± 4 nM in data set [3].

B2: fibrillin-1 Ex6–11 fragment (domain or fragment)
chain: not shown
notes: human fibrillin-1, domains encoded by exons 6-11; source: 293-EBNA cells (pCEP-pu/AC7), purified (IMAC, size-exclusion chromatography)
Regarding B2, the Kd in data set [4] was found to be 2.4 ± 1.2 nM.
